Test results: the supplement of paper PMC9732359
± gives the uncertainty stated by the source.

Experiment: protein stability index of a GFP-peptide fusion (yeast GPS) (PSI 1-4); higher = more stable; sorted into four equal gates, so the index is relative within each strain
How it was run: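 Each library plasmid carries Cherry plus GFP with a tiled 17-residue yeast protein peptide fused downstream, and the pooled library was carried in yeast. Mid-log cultures in leucine-free medium were sorted into four equal gates by GFP/Cherry ratio. Reads from Illumina sequencing of PCR-amplified plasmids from each gate were assigned to strains by barcodes. Per peptide, the protein stability index was computed as the summed products of gate read frequency and gate number.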

Sequence | protein stability index (doa10∆) | protein stability index (pdr5∆) | protein stability index (san1∆) | protein stability index (ubr1∆)
KATAAKKAVVKGTNGKK [RPL25] | 3.3 ± 0.15 | 2.05 ± 0.1 | 1.53 ± 0.17 | 1.29 ± 0.22
YHQLLSDIESLEALMDI [SRB8] | 2.9 ± 0.13 | 2.84 ± 0.19 |  | 2.25 ± 0.2
GGKAGSAAKASQSRSAK [HTA1] | 3.17 ± 0.072 | 3.14 ± 0.071 | 2.84 ± 0.069 | 3.19 ± 0.048
NYTQNIDNLESYAGIST [SIR2] | 2.92 ± 0.059 | 2.96 ± 0.09 | 2.87 ± 0.071 | 3.01 ± 0.044
GPIKTPVGACATSVESV [FAS2] | 1.39 ± 0.073 | 2.13 ± 0.12 | 2.15 ± 0.11 | 2.22 ± 0.077
CINELDNWNAPLIMATC [RPO31] | 3.18 ± 0.16 | 2.66 ± 0.14 | 3.3 ± 0.07 | 3.54 ± 0.12
NIVSDAGANDTSNNETN [GRR1] | 2.79 ± 0.051 | 2.37 ± 0.2 | 1.82 ± 0.15 | 2.71 ± 0.099
VPSHVPQVLINRDPVKH [SIR2] | 2.52 ± 0.13 | 3 ± 0.088 | 3.06 ± 0.12 | 2.76 ± 0.098
ELTQVPSARQKYMVKGG [UBP6] | 2.6 ± 0.13 | 2.83 ± 0.095 | 2.95 ± 0.1 | 2.96 ± 0.11
SKPAFSFGAKSDEKKDG [YJL041W/NSP1] | 3.25 ± 0.17 | 2.97 ± 0.13 | 3.25 ± 0.12 | 
AARYDYAVAEQCPVKSA [QCR2] |  |  |  | 1.88 ± 0.065
TKSNRRVSHSDTNSSKP [SIR4] | 2.97 ± 0.077 | 3.19 ± 0.085 | 2.99 ± 0.077 | 3.25 ± 0.053
TSAGIMDHEEARRKHVS [RPS22A] | 2.87 ± 0.3 | 2.73 ± 0.23 | 2.87 ± 0.24 | 2.62 ± 0.15
LADILKANISLETLEHN [RPO21] | 2.96 ± 0.093 | 2.91 ± 0.1 | 3.11 ± 0.11 | 2.61 ± 0.11
FAKFIHHIHHFEKKELQ [IRR1] | 1.72 ± 0.048 | 2.74 ± 0.064 | 2.18 ± 0.12 | 2.13 ± 0.056
IPKLKPAPINSLSRDFV [SNU114] | 2.92 ± 0.052 | 2.8 ± 0.061 | 2.68 ± 0.039 | 2.75 ± 0.047
QTLSEKEYQCSAVIIDE [YIL149C/MLP2] | 2.64 ± 0.11 | 3.03 ± 0.098 | 3.15 ± 0.082 | 2.88 ± 0.054
SYDRTLLIADSRRPEPK [RPS16A] | 2.25 ± 0.043 | 2.48 ± 0.068 | 2.03 ± 0.075 | 2.29 ± 0.058
TGITKKDEDEEADEDMK [PRE9] | 3.09 ± 0.057 | 3.3 ± 0.074 | 3.06 ± 0.064 | 3.07 ± 0.061
NNQQRLLLKKLDNFQKS [SMC3] | 2.55 ± 0.06 | 2.64 ± 0.068 | 2.41 ± 0.054 | 2.45 ± 0.043
QTKRWPTMYTRLCICSG [SIN4] | 1.4 ± 0.039 | 1.48 ± 0.038 | 1.51 ± 0.078 | 1.58 ± 0.03
PRQTKKAKAQAQAQAQA [PGD1] | 3.2 ± 0.077 | 3.46 ± 0.056 | 3.22 ± 0.036 | 3.06 ± 0.059
LTQEELERIVQIMQNPT [RPS18A] | 2.64 ± 0.099 | 3.08 ± 0.11 | 2.93 ± 0.064 | 2.75 ± 0.12
ESLILKWDNQSASRAKN [RGR1] | 3.16 ± 0.05 | 3.24 ± 0.055 | 2.9 ± 0.05 | 3.09 ± 0.052
LLLAAQIVSYCSNNKNS [SSN2] | 1.17 ± 0.045 | 1.42 ± 0.048 | 1.23 ± 0.083 | 1.34 ± 0.045

Sequence | protein stability index (doa10∆) | protein stability index (pdr5∆) | protein stability index (san1∆) | protein stability index (ubr1∆)
TIGPYRARKDRMRVSVL [SSN3] | 3.19 ± 0.15 | 2.99 ± 0.085 | 3.07 ± 0.083 | 3.12 ± 0.052
QYATVSKTHKTVSRAYG [RPL34A] | 2.05 ± 0.069 | 2.31 ± 0.055 | 2.41 ± 0.065 | 2.34 ± 0.06
GLNWLISLHENKLSGIL [ISW2] | 2.05 ± 0.056 | 2.06 ± 0.062 | 2.11 ± 0.082 | 2.31 ± 0.092
SAKTRSHNWAAKAKRRH [RPL37B] | 3.42 ± 0.093 | 3.32 ± 0.071 | 3.31 ± 0.059 | 3.41 ± 0.042
ESEEAETKDIRKQIQLL [SRB4] | 2.53 ± 0.081 | 2.94 ± 0.086 | 2.5 ± 0.062 | 2.71 ± 0.075
RYPMNLLEFIIDEIAYL [ECM29] | 2.43 ± 0.097 | 2.89 ± 0.1 | 2.75 ± 0.091 | 2.89 ± 0.2
DIKAPSTFENRNVGKTL [RPS1A] | 2.95 ± 0.074 | 2.72 ± 0.06 | 3 ± 0.052 | 3.1 ± 0.057
DYQVQGLNWLISLHENK [ISW2] | 1.53 ± 0.052 | 2.15 ± 0.058 | 1.64 ± 0.078 | 2.19 ± 0.054
ETPSRLLLSPDQWYCID [ITC1] | 2.8 ± 0.062 | 3.21 ± 0.085 | 3.16 ± 0.075 | 2.81 ± 0.051
NQKIPDNVIVINHKINN [SIR3] | 1.93 ± 0.06 | 2.03 ± 0.053 | 1.79 ± 0.066 | 2.14 ± 0.041
FNLLILSLNKRIYDREP [YCG1] | 2.75 ± 0.11 | 2.41 ± 0.091 | 2.22 ± 0.13 | 2.33 ± 0.045
YIYSHVNKVPQNVAGDK [SWP82] | 2.79 ± 0.17 | 2.93 ± 0.079 | 2.96 ± 0.08 | 2.97 ± 0.071
DLTFKLADILKANISLE [RPO21] | 2.49 ± 0.068 | 2.68 ± 0.087 | 2.46 ± 0.067 | 2.32 ± 0.047
IPSGNVWNYTFMGTAFN [PRP8] | 2.76 ± 0.11 | 2.47 ± 0.16 | 2.74 ± 0.095 | 2.93 ± 0.068
IYSPLHSFIKMLQMKGK [SIR2] | 2.1 ± 0.064 | 1.79 ± 0.058 | 1.91 ± 0.14 | 1.88 ± 0.051
EPPLSYEQHIENIEPLD [PRP8] | 2.44 ± 0.087 | 2.97 ± 0.097 | 2.32 ± 0.12 | 3.03 ± 0.27
ANLLFKKEKLKQENSTL [RPC82] | 2.15 ± 0.077 | 2.24 ± 0.067 | 1.92 ± 0.12 | 1.93 ± 0.06
KILITYGSSPKLLATST [SRB8] | 1.22 ± 0.039 | 1.33 ± 0.039 | 1.48 ± 0.091 | 1.53 ± 0.042
GGGWDNVDQTKTQCPNY [RPC11] | 3.47 ± 0.13 | 3.25 ± 0.17 | 3.07 ± 0.078 | 3.22 ± 0.09
DIKVLKRQLIKERNQKF [YIL149C/MLP2] | 2.7 ± 0.084 | 2.62 ± 0.084 | 2.5 ± 0.091 | 2.41 ± 0.039
IALMGQDNKKIYVHVRR [ESC2] | 2.33 ± 0.081 | 2.57 ± 0.12 | 2.47 ± 0.17 | 2.53 ± 0.068
DPGRYNKVCRIEAASTT [RPB8] | 2.41 ± 0.093 | 2.53 ± 0.099 | 2.48 ± 0.1 | 2.73 ± 0.082
GAKPEEKKDDNSSKPAF [YJL041W/NSP1] | 3.29 ± 0.12 | 3.38 ± 0.14 | 2.87 ± 0.082 | 2.86 ± 0.078
RGAHVEKTMVKKNLGRL [PRP8] |  | 3.29 ± 0.16 | 3.14 ± 0.18 | 
TLNSRALSGLYYKNFHN [SNM1] | 2.17 ± 0.052 | 2.38 ± 0.06 | 1.88 ± 0.063 | 2 ± 0.042
